In the RNAGym collection of RNA variant scans (doi:10.1073/pnas.2313332121):
Fewer inactive variants are shown than the library holds.

B1: TPR 5TU (parent)
chain: GGAUCUUCUCGAUCUAACAAAAAAGACAAAUCUGCCACAAAGCUUGAGAGCAUCUUCGGAUGCAGAGGCGGCAGCCUUCGGUGGCGCGAUAGCGCCAACGUUCUCAACUAUGACACGCAAAACGCGUGCUCCGUUGAAUGGAGUUUAUCAUG

Variants of: B1
Test: polymerase ribozyme fitness, log enrichment relative to wild type (log ratio); higher = more active; in vitro selection for triplet polymerase activity
Outline: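 Fitness measures genotype enrichment against wild-type enrichment on a logarithmic scale, with inverse-variance-weighted averaging of replicates. The logarithm is base 2, and genotypes were kept only with ≥10 input reads and ≥1 read per output in Illumina sequencing. The sequenced libraries came from one triplicate in vitro selection round, including frozen incubation at −7 °C, of PCR-built, transcribed mutant libraries of each subunit of a heterodimeric triplet polymerase ribozyme.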

Variant	polymerase ribozyme fitness (log ratio)
GGAUCUUCUCGAUCUAACAAAAAAGACAAAUCUGCCACAAAGCUUGAGAGCAUCUUCGAAUGCAGAGGCGGCAGCCUUCGGUGGCGCGAAAGCGCCAGCGUUAUCAACUAUGACACGCAAAACGCGUGCUCCGUUGAAUGGAGUUUAUCAUG	≤ -4.2
GGAUCUUCUCGAUCUAACAAAAAAGACAAAUCUGCCACAAAGCUUGAGAGCAUCUUCGAAUGCAGAGGCGGCAGCCUUCGGUGGCGCGGUAGCGCCAACGUUCUCAACUAUGACACGCAAAACGCGUGCUCCGUUGAAUGGAGUUUAUCAUG	-1.1
GGAUCUUCUCGAUCUAACAAAAAAGACAAAUCUGCCACAAAGCUUGAGAGCAUCUUCGAAUGCAGAGGCCGCAGCCUUCGGUGGUGCGAUUGCGCCAACGUUCUCAACUAUGACACGCAAAACGCGUGCUCCGUUGAAUGGAGUUUAUCAUG	≤ -4.2
GGAUCUUCUCGAUCUAACAAAAAAGACAAAUCUGCCACAAAGCUUGAGAGCAUCUUCGAAUGCAGAGGCGGCAGCCUUCGGUGGCGUGAUAGCGCCAACGUUCUCAACUAUGACACGCAAAACGCGUGCUCCGUUGUAUGGAGUUUAUCAUG	≤ -4.2
GGAUCUUCUCGAUCUAACAAAAAAGACAAAUCUGCCACAAAGCUUGAGAGCAUCUUCGAAUGCAGAGGCGGCAGCCUUCGGUGGCGCGAUAGCGCCAACAUUCUCAACUAUGACACGCAAAACGCGUGCUCCGUUGAAUGGAGUUUAUCAUG	≤ -4.2
GGAUCUUCUCGAUCUAACAAAAAAGACAAAUCUGCCACAAAGCUUGAGAGCAUCUUCGAAUGCAGAGGCGGCAGCCUUCGGGGGCGCGAUAGCGCCAACGUUCUCAACUAUGACACUCAAAACGCGUGCUCCGUUGAAUGGAGUUUAUCAUG	0.479
GGAUCUUCUCGAUCUAACAAAAAAGACAAAUCUGCCACAAAGCUUGAGAGCAUCUUCGAAUGCAGAGGCGGCAGCCUUCGGUCGCGCGAUAGCGCCAACGUUCUCAACUAUGACACGCAAAACGCGUGCUCCGUUGAAUGGAGUUUAUCAUG	-0.954
GGAUCUUCUCGAUCUAACAAAAAAGACAAAUCUGCCACAAAGCUUGAGAGCAUCUUCGAAUGCAGAGGCGGCAGCCUUCGGUGGCGCGAUAGAGCCAACGUUCUCAACUAUGACACGCAAAACGCGUGCUCCGUUGAAUGCAGUUUAUCAUG	-4.03
GGAUCUUCUCGAUCUAACAAAAAAGACAAAUCUGCCACAAAGCUUGAGAGCAUCUUCGAAUGCAGAGGCGGCAGCCCUCGGUGGCGCGAUAGCGCCAACGUUCUCAACUAUGACACGCAAAACGCGUGCUCCGUUGAAUGGAGUUUAUCAUG	-3.69
GGAUCUUCUCGAUCUAACAAAAAAGACAAAUCUGCCACAAAGCUUGAGAGCAUCUUCGAAUGCAGAGGCGUCAGCCUUCGGUGUCGCGAUAACGCCAACGUUCUCAACUAUGACGCGGAAAACGCGUGCUCCGUUGAAUGGAGCUUAUGAUG	≤ -4.2
GGAUCUUCUCGAUCUAACAAAAAAGACAAAUCUGCCACAAAGCUUGAGAGCAUCUUCGAAUGCAGAGGCGGCAGCCUUCGGUGGGGCGAUAGCGCCAACGUUCUCAACUAUGACACGCAAAACGCGUGCUCCGUUGAAUGGAGUUUAUCAUG	-2.1
GGAUCUUCUCGAUCUAACAAAAAAGACAAAUCUGCCACAAAGCUUGAGAGCAUCUUCGAAUGCAGAGGCGGCAGCCUUCGGUGGAGCGAUAGCGCCAACGUUCUCAACUAUGACACGCAAAACGCGUGCUCCGUUGAAUGGAGUUUAUCAUG	-1.04
GGAUCUUCUCGAUCUAACAAAAAAGACAAAUCUGCCACAAAGCUUGAGAGCAUCUUCGAAUGCAGAGGCGGCAGCGUGCGGUGGUGCAAUACCGCCAACGUUCUCAACUAUGACACGCAAAACGCGUGCUCCGUUGAAUGGAGUUUAUCAUG	≤ -4.2
GGAUCUUCUCGAUCUAACAAAAAAGACAAAUCUGCCACAAAGCUUGAGAGCAUCUUCGAAUGCAGAGGCGGCAGCCUUCGGUGGCGCGAUAGCGCCAACGUUCUCAACUAUGACACGCAAAACGCGUGCUCCGUAGAAUGUAGUUUAUCAUG	-1.18
GGAUCUUCUCGAUCUAACAAAAAAGACAAAUCUGCCACAAAGCUUGAGAGCAUCUUCGAAUGCAGAGGCGGCAGCCUUCGGUGGAGCGAUAGCGUCAACGUUUUCAACUAUGACACGCAAAACGCGUGCUCCGAUGAAUGGAGUUUAUCAUG	-3.2
GGAUCUUCUCGAUCUAACAAAAAAGACAAAUCUGCCACAAAGCUUGAGAGCAUCUUCGAAUGCAGAGGCGGCAGCCUUCGGUGGCGCGAUAGCGCCAACGUUCUCAACUAUGACACGCAAAACGCGUGCUCCGAUGAAUGGAGUUUAUCAUG	-2.02
GGAUCUUCUCGAUCUAACAAAAAAGACAAAUCUGCCACAAAGCUUGAGAGCAUCUUCGAAUGCAGAGGCGGCAGCCUUCGGUGGCGCGAUAGCGCCAACGUUCUCAACUAUGACACGCAAAACGCGUGCUCCUUUGAAUCGAGUUUAUCAUG	-3.69
GGAUCUUCUCGAUCUAACAAAAAAGACAAAUCUGCCACAAAGCUUGAGAGCAUCUUCGAAUGCAGAGGCGGCAGCCUUCGGUGGCGCGAUAACGCCAACGUUCUCAACUAUGACACGCAAAACGCGUACUCCGUUGAAUGGAGUUUAUCAUG	-4.02
GGAUCUUCUCGAUCUAACAAAAAAGACAAAUCUGCCACAAAGCUUGAGAGCAUCUUCGAAAGCAGAGGCGGCAGCCUUUGGUAGCGCGAUAGCGCCAACGUUCUCAACUAUGACACGCAACACGCGUGCUCCGUUGAAUGGAGUUUAUCAUG	≤ -4.2
